Consider 20 molecules from article PMC8287928.

Broadly, the Kd is a measure of binding affinity in units of concentration. Read a low Kd as tighter binding.

In data set [1] the target is SARS-CoV-2 spike S1 subunit (SARS-CoV-2 (wild type), UniProt P0DTC2 16-685). As to conditions: protein: commercial; tags: His.
Data set [2] concerns the target HCoV-229E RBD (HCoV-229E, UniProt P15423 293-435). In words: dot blot (filter binding); 50 nM protein. To be noted: protein: recombinant; tags: C-terminal His; hairpin.
The target of data set [3] is SARS-CoV-2 spike RBD (SARS-CoV-2, UniProt P0DTC2 319-541). As to conditions: protein: commercial.
The target in data set [4] is Human alpha-thrombin (human, UniProt P00734;P00734 315-363;364-622).
Data set [5] has as its target SARS-CoV-1 RBD (SARS-CoV-1, UniProt P59594 306-527). As to conditions: protein: recombinant; tags: C-terminal His; label: 5'-32P; hairpin.
For data set [6], the target named is MERS-CoV RBD (MERS-CoV, UniProt K9N5Q8 367-588). To be noted: protein: recombinant; tags: C-terminal His; label: 5'-32P; hairpin.
Sequence of MERS-CoV RBD (K9N5Q8 367-588): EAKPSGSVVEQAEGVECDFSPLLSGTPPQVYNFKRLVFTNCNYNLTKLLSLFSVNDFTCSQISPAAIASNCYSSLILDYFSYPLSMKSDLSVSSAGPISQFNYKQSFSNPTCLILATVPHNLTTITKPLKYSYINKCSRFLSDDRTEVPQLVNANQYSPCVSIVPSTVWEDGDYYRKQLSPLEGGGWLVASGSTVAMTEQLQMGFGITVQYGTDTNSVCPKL
Data set [7] deals with SARS-CoV-1 full spike protein (SARS-CoV-1, UniProt P59594 14-1195). As to conditions: protein: commercial; chain copies: 3; label: 5'-32P; hairpin.
The target of data set [8] is SARS-CoV-2 spike S1 subunit (SARS-CoV-2 (wild type), UniProt P0DTC2 16-685). As to conditions: protein: commercial; tags: His. The source holds these as a separate data set.

Sequence of HCoV-229E RBD (P15423 293-435): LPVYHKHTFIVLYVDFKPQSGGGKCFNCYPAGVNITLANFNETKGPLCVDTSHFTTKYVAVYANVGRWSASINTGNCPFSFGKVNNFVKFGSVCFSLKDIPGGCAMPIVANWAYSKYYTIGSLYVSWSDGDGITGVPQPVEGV

B1: MSA4 (structured_DNA)
DNA: TTACGTCAAGGTGTCACTCCTGTGGGCGGGGGCGGTTGATTGTATTACTGTCGGGAGGGGGAAGCATCTCTTTGGCGTG
In data set [1], B1 registered a Kd of 27.6 ± 0.6 nM.

B2: MSA8 (structured_DNA)
DNA: TTACGTCAAGGTGTCACTCCATGTGGGTGGGGGTCATTCTTCAGTGTCGGGAGGGGGTGGAAGCATCTCTTTGGCGTG
Take B2: the Kd in data set [1] was determined as 23 ± 1 nM.

B3: MSA5 (structured_DNA)
DNA: TTACGTCAAGGTGTCACTCCACGGGTTTGGCGTCGGGCCTGGCGGGGGGATAGTGCGGTGGAAGCATCTCTTTGGCGTG
On to B3, for which the binding result in data set [2], in data set [4], in data set [5], in data set [6] and in data set [7] was “no binding” each time. Besides, the Kd in data set [1] turned out to be 2.7 ± 0.2 nM; in data set [3], 4 ± 0.6 nM.

B4: MSA1-T2 (structured_DNA)
DNA: TTCCGGTTAATTTATGCTCTACCCGTCCACCTACCGGAA
Consider B4, for which the binding result in data set [1] is listed as “binds”.

B5: MSA1-T3 (structured_DNA)
DNA: TCCGGTTAATTTATGCTCTACCCGTCCACCTACCGGA
Turning to B5, in data set [1], the Kd is 3.1 nM.

B6: MSA5-T3 (structured_DNA)
DNA: CTCCACGGGTTTGGCGTCGGGCCTGGCGGGGGGATAGTGCGGTGGAG
B6 came in with a Kd in data set [1] of 7.3 nM. This Kd is about 2.4-fold higher than that of the molecule before.

B7: MSA5-T7 (structured_DNA)
DNA: TCCACGGCGTCGGGCCTGGCGGGGGGATAGTGCGGTGGA
B7 came in with a Kd in data set [1] of 22.8 nM.

B8: MSA1-T4 (structured_DNA)
DNA: CCGGTTAATTTATGCTCTACCCGTCCACCTACCGG
In the case of B8, the “fold Kd increase” value in data set [1] was 36 fold Kd increase vs MSA1-T3.

B9: MSA3 (structured_DNA)
DNA: TTACGTCAAGGTGTCACTCCTACAGCGTCTGGTTGGTTTGGTTGGATCTTCGATCGCTGTGAAGCATCTCTTTGGCGTG
Turning to B9, in data set [1], the Kd is 1.9 ± 0.1 nM.

B10: MSA3-T2 (structured_DNA)
DNA: ACAGCGTCTGGTTGGTTTGGTTGGATCTTCGATCGCTGT
B10: the Kd in data set [1] was determined as 1.9 nM.

B11: MSA5-T4 (structured_DNA)
DNA: CTTCCACGGGTTTGGCGTCGGGCCTGGCGGGGGGATAGTGCGGTGGAAG
Molecule B11 displayed a Kd in data set [1] of 6.3 nM. Compared with the last molecule, the Kd is about 3.3-fold higher.

B12: MSA10 (structured_DNA)
DNA: TTACGTCAAGGTGTCACTCCGCGGGTTTGGCTCCGGGCCTGGCGTTGCGGTCTGCTCCCCGAAGCATCTCTTTGGCGTG
For the molecule B12, the affinity in data set [1], expressed as Kd, was 134 ± 21.3 nM.

B13: MSA1 (structured_DNA)
DNA: TTACGTCAAGGTGTCACTCCCACTTTCCGGTTAATTTATGCTCTACCCGTCCACCTACCGGAAGCATCTCTTTGGCGTG
For B13, the binding result in data set [2] and in data set [4] was “no binding” in each case. The molecule also gave a Kd in data set [8] of 1.8 ± 0.4 nM.

B14: MSA9 (structured_DNA)
DNA: TTACGTCAAGGTGTCACTCCTTCGTGTGGGTGGGGTCCTAACTTTCCTGTCGGGGTCGGGGAAGCATCTCTTTGGCGTG
As to B14, binding in data set [1] was put at a Kd of 37.4 ± 1.6 nM.

B15: MSA5-T2 (structured_DNA)
DNA: ACGGGTTTGGCGTCGGGCCTGGCGGGGGGATAGTGCGGT
B15 displayed a Kd in data set [1] of 10.1 nM. This Kd lies about 3.7-fold lower than the previous one.

B16: MSA5-T1 (structured_DNA)
DNA: TCCACGGGTTTGGCGTCGGGCCTGGCGGGGGGATAGTGCGGTGGA
In the case of B16, the Kd in data set [1] stood at 8.4 nM. The Kd values of the last two molecules are within 1.5-fold of each other.

B17: MSA7 (structured_DNA)
DNA: TTACGTCAAGGTGTCACTCCTGGCTGTGGGGTTCGGGGTCACTATTTGTCGGGAGGGGAGGAAGCATCTCTTTGGCGTG
Molecule B17 displayed a Kd in data set [1] of 76.2 ± 10.5 nM.

B18: MSA2 (structured_DNA)
DNA: TTACGTCAAGGTGTCACTCCTCAGTGGGAGGGGGTCCATGTCTTGTCGGGGTCGGGGGTGGAAGCATCTCTTTGGCGTG
Take B18: in data set [1], binding was characterised by a dissociation constant (Kd) of 9.2 ± 0.2 nM. This Kd lies about 8.3-fold lower than the previous one.

B19: MSA6 (structured_DNA)
DNA: TTACGTCAAGGTGTCACTCCTCGGGGGGGTTTGGCACTGGGCCTGGCAGTACCGGGTCGCGAAGCATCTCTTTGGCGTG
In data set [1], B19 had a Kd of 16.2 ± 2.3 nM.

B20: MSA5-T6 (structured_DNA)
DNA: TCCACGGGTTTGCTGGCGGGGGGATAGTGCGGTGGA
As for B20, the Kd in data set [1] was 264 nM.
